Results from patent US20240141072A1 (published 2024).

What was measured:
[1] = biological target: DH43 anti-DLL3 trispecific protein; test: Octet BLI, single 60 nM
[2] = biological target: DH6 anti-DLL3 trispecific protein; test: Octet BLI, single 60 nM
[3] = biological target: 51G10 anti-DLL3 trispecific protein (CHO expressed, purified) (biotinylated); test: Octet BLI, biotinylated trispecific on streptavidin tips
[4] = biological target: T1, 51G2 anti-DLL3 trispecific protein (CHO expressed, purified) (biotinylated); test: as above
T1 construct: also called 51G02

[5] = biological target: T2, DLL3 targeting trispecific protein containing 52D04, anti-DLL3:anti-ALB:anti-CD3 (TAC) configuration; test: flow cytometry on NCI-H82, SHP77, DMS53, NCI-H2171 cells
T2 construct: also called DLL3-targeting TriTAC

[6] = biological target: T3, DLL3 targeting trispecific protein containing 52D04, anti-CD3:anti-ALB:anti-DLL3 (CAT) configuration; test: as above
T3 construct: also called DLL3-targeting TriTAC
T3 sequence (chain, as listed by the source): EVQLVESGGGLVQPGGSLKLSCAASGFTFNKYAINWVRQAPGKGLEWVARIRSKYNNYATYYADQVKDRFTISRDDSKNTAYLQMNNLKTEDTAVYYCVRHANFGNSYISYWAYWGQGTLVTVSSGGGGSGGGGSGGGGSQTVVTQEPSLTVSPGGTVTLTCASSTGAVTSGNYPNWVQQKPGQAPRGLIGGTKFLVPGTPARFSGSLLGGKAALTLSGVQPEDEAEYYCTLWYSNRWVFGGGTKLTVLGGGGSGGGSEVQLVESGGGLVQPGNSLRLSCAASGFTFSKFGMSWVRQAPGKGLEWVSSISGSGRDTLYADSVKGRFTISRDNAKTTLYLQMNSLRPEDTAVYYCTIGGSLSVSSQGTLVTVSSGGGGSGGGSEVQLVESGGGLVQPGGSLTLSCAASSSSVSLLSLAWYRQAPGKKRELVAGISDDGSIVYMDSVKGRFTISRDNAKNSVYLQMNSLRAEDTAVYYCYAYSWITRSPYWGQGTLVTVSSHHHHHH

T1 sequence (chain, as listed by the source): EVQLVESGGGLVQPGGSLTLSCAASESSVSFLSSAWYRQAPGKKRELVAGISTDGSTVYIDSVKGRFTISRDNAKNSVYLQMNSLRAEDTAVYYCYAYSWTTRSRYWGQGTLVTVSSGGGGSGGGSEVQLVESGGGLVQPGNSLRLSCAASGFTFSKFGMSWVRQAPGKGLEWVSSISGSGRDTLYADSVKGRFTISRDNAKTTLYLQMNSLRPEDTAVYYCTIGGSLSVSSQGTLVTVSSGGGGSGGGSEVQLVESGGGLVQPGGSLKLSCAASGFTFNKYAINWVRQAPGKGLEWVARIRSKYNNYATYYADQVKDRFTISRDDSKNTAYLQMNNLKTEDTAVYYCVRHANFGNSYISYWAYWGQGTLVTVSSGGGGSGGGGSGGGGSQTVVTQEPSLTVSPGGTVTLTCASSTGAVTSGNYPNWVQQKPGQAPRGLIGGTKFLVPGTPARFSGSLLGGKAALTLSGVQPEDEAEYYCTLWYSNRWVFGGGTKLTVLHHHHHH
T2 sequence (chain, as listed by the source): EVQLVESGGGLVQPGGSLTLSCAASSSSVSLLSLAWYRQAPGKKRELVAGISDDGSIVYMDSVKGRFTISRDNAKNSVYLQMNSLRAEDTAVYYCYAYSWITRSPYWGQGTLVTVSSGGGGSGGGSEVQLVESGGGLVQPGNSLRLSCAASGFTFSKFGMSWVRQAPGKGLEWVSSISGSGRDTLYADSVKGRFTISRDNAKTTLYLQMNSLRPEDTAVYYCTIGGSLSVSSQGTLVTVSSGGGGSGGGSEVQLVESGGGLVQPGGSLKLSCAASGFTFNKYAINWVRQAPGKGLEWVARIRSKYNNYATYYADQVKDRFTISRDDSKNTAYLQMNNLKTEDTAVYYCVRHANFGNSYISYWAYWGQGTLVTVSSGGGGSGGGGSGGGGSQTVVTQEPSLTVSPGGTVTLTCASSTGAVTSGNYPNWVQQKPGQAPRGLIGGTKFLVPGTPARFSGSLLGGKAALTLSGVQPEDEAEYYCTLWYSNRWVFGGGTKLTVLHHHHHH
Chain of 51G10 anti-DLL3 trispecific protein (CHO expressed, purified) (biotinylated) (chain, as listed by the source): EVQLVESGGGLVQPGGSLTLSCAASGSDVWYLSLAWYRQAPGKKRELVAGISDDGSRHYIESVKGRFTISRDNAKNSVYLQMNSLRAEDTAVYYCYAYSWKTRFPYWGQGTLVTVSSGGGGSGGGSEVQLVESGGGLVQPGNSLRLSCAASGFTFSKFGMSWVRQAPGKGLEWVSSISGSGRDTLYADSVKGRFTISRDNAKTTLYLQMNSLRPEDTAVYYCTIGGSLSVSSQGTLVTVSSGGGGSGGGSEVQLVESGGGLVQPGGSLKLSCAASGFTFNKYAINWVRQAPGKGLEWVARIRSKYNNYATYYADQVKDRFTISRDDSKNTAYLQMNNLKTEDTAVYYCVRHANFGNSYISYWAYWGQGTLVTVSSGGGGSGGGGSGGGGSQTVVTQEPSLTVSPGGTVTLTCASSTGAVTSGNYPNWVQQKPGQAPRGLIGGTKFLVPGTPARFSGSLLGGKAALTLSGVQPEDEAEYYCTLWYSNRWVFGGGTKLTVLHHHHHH
Chain of DH43 anti-DLL3 trispecific protein (chain, as listed by the source): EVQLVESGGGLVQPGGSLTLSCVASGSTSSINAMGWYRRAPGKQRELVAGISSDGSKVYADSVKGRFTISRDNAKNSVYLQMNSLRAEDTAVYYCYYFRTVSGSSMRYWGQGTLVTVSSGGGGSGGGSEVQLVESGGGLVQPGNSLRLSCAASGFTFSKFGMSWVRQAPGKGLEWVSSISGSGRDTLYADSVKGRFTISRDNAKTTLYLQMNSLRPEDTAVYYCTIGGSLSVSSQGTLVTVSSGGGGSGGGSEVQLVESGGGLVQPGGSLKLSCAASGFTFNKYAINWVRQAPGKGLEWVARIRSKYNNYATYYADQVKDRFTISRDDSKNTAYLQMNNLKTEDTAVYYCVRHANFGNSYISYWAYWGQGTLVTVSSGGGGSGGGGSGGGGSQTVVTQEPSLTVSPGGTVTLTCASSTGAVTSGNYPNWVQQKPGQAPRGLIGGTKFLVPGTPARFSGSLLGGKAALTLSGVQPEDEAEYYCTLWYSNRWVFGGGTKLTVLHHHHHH
Chain of DH6 anti-DLL3 trispecific protein (chain, as listed by the source): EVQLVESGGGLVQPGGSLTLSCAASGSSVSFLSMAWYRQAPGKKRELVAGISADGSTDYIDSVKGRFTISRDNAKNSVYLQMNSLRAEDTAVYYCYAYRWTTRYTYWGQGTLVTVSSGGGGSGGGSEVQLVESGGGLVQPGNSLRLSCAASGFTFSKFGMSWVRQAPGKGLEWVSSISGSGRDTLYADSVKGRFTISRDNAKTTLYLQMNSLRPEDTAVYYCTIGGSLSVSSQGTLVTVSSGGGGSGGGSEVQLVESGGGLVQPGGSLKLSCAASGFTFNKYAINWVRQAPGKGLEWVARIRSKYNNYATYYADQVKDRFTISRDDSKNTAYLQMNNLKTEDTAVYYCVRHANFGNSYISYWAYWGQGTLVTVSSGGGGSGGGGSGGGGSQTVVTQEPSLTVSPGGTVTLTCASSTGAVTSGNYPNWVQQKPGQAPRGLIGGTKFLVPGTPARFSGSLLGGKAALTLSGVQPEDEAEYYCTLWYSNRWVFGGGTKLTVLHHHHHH

Kd [1] [nM] | Kd [2] [nM] | Kd [3] [nM] | Kd [4] [nM] | binding result [5] | binding result [6] | Binder
8.5 | 10 | 1.4 to 3.4 | 1.4 to 3.4 |  |  | cynomolgus DLL3 (ligand, also called cyDLL3) AGVFELQIHSFGPGPGGAPRSPYSARGPCRLFFRVCLKPGLSEEAAESPCALGAALSARGPVYTEQPEAPAPDLPLPNGLLQVPFRDAWPGTFSLIIETWREELGDQIGGPAWSLLARVTRRRRLAAGGPWAGDIQRAGAWELRFSYRARCELPAVGTACTRLCRPRSASRCGPGLRPCAPLEDECEAPPVCRAGCSLEHGFCEQPGECRCLEGWTGPLCMVPVSTSSCLGLRGPSSTTTGCLVPGPGPCDGNPCANGGSCSETPGSFECTCPRGFYGLRCEVSGVTCADGPCFNGGLCVGGADPDSAYICHCPPGFQGSNCEKRVDRCSLQPCRNGGLCLDLGHALRCRCRAGFAGPRCEHDLNDCAGRACANGGTCVEGGGAHRCSCALGFGGRDCRERADPCAARPCAHGGRCYAHFSGLVCACAPGYMGARCEFPVHPDGVSALPAAPPGLRPGDPQRYP
 |  |  |  | binds | binds | human DLL3 on DLL3-expressing tumor cell lines (ligand, endogenous DLL3 of human cancer cell lines) AGVFELQIHSFGPGPGPGAPRSPCSARLPCRLFFRVCLKPGLSEEAAESPCALGAALSARGPVYTEQPGAPAPDLPLPDGLLQVPFRDAWPGTFSFIIETWREELGDQIGGPAWSLLARVAGRRRLAAGGPWARDIQRAGAWELRFSYRARCEPPAVGTACTRLCRPRSAPSRCGPGLRPCAPLEDECEAPLVCRAGCSPEHGFCEQPGECRCLEGWTGPLCTVPVSTSSCLSPRGPSSATTGCLVPGPGPCDGNPCANGGSCSETPRSFECTCPRGFYGLRCEVSGVTCADGPCFNGGLCVGGADPDSAYICHCPPGFQGSNCEKRVDRCSLQPCRNGGLCLDLGHALRCRCRAGFAGPRCEHDLDDCAGRACANGGTCVEGGGAHRCSCALGFGGRDCRERADPCAARPCAHGGRCYAHFSGLVCACAPGYMGARCEFPVHPDGASALPAAPPGLRPGDPQRYLLPPALGLLVAAGVAGAALLLVHVRRRGHSQDAGSRLLAGTPEPSVHALPDALNNLRTQEGSGDGPSSSVDWNRPEDVDPQGIYVISAPSIYAREVATPLFPPLHTGRAGQRQHLLFPYPSSILSVK
